The values below come from patent US20250215101A1, “DR5 Agonist and PLK1 Inhibitor or CDK Inhibitor Combination Therapy” (Inhibrx Biosciences, Inc., priority 2022, published 2025).

The subject of assay [1] is cancer cell lines HT-29, LS174T, SW620, SW837, SW1463, and LS411N. As to the kind of experiment: Cytotoxicity screen INBRX-109 + onvansertib, summary over the cell lines. The assay is classed as cell-based. The conditions noted are these: combination of INBRX-109 and onvansertib. As for the experimental part: Monolayer cultures of each cell line were harvested for compound screening as detailed below.
Onvansertib: A 10 mg stock of onvansertib was purchased from Selleck Chemicals and was resuspended to 10 mM in DMSO. This was then aliquoted and stored at −80° C. Aliquots were thawed immediately prior to dilution and use in the assay. A 500× master plate of serial dilutions (6-point 5-fold dilutions in 100% DMSO starting at 500 μM, plus a DMSO only control) was prepared and mixed gently with a pipette. To generate a 5× working dilution plate of onvansertib, a 1:100 dilution was performed from the 500× plate into complete media (EMEM).
Also on day 2, test and control articles were added.
On day 4, viability measurements were taken. […] Data was graphed in GraphPad Prism 9.

Assay [2] has as its system several cancerous cell lines. As to the kind of experiment: Previous cytotoxicity assays with several cancerous cell lines. The assay is classed as cell-based.
The subject of assay [3] is CAL-78. As to the kind of experiment: Cell viability (CellTiter-Glo) cytotoxicity assay, INBRX-109 x CDK9 or MCL-1 inhibitor matrix, 48 h, chondrosarcoma line.
Experimental: (§1) On day 1, cells were seeded as follows. Monolayer cultures of each cell line (chondrosarcoma: CAL-78, OUMS-27, SW1353, and H-EMC-SS; colorectal cancer: SW620; and synovial sarcoma: HS-SY-II) were harvested for compound screening. Culture medium was aspirated, and the cells were washed once with PBS. Accutase was added and flasks were incubated at 37° C. until cells became detached. An equal volume of complete medium was added to quench the Accutase, and the cells were then pipetted up and down several times to generate a homogenous single cell suspension. The density and viability of cells was determined by Trypan Blue using a TC20 Automated Cell Counter. Experimental cells were resuspended to a concentration of 0.17×10^6/mL in Eagle's Minimum Essential Medium (EMEM)/10% FBS/Anti-Anti media (complete EMEM) and seeded in the inner wells of 384-well luminescence plates at 15 mL/well (2,500/well final). Each cell line was plated in duplicate on separate plates. Outer wells were filled with 50 mL PBS, then plates were incubated in a humidified temperature-controlled 37° C. tissue culture incubator at 5% CO2 overnight for 16 hours.
(§2) These test articles were added, in duplicate, to each cell line. The plates were then centrifuged at 400×g for 1 minute, then incubated in a 37° C. humidity-controlled tissue culture incubator (5% CO2) for 48 hours.
(§3) After incubation with the test articles, viability measurements were taken, briefly. Plates were equilibrated to room temperature for 10 minutes, then 25 μL of CellTiter-Glo 2.0® was added to each well. Plates were spun for 1 minute at 400×g, then covered and incubated in the dark for 10 minutes at room temperature. Any visible bubbles were removed with 100% ethanol vapor, then luminescence (RLU) was read on the Spectra Max M5e plate reader, using the 384-well opaque plate setting and SoftMax® Pro v5.4 software with an integration time of 50 milliseconds. To determine the effect of test articles on cell viability, raw RLU values were exported to Excel and percent survival was calculated as a percentage of vehicle control (0.5% DMSO in EMEM), where the vehicle control is set at 100%. Data was graphed in GraphPad Prism 9.
Assay [4] concerns SW1353. The assay is described as above.
Experimental: as §1, §2, §3
The test system of assay [5] is H-EMC-SS. Described as above.
Experimental: as §1, §2, §3
The subject of assay [6] is HS-SY-II. As to the kind of experiment: Cell viability (CellTiter-Glo) cytotoxicity assay, INBRX-109 x CDK9 or MCL-1 inhibitor matrix, 48 h, synovial sarcoma line. (In general: In ATP-based viability assays light output follows the ATP content of the culture.)
Experimental: as §1, §2, §3
Assay [7] deals with SW620. As to the kind of experiment: Cell viability (CellTiter-Glo) cytotoxicity assay, INBRX-109 x CDK9 or MCL-1 inhibitor matrix, 48 h, colorectal cancer line.
Experimental: as §1, §2, §3
Where [8] appears, read: INBRX-109 + 125 nM flavopiridol.

For the molecule `CN1CCN(c2ccc(OC(F)(F)F)c(Nc3ncc4c(n3)-c3c(c(C(N)=O)nn3CCO)CC4)c2)CC1` [Onvansertib], in assay [1], the “cell killing by the combination” value was “increased cell killing on every cancer cell line tested”.

B1: INBRX-109: DR5-binding polypeptide consisting of SEQ ID NO: 7 (two VHH domains and an Fc region); DR5 agonist (protein)
chain: EVQLLESGGGEVQPGGSLRLSCAASGLTFPNYGMGWFRQAPGKEREFVSAIYWSGGTVYYAESVKGRFTISRDNAKNTLYLQMSSLRAEDTAVYYCAVTIRGAATQTWKYDYWGQGTLVTVKPGGSGGSEVQLLESGGGEVQPGGSLRLSCAASGLTFPNYGMGWFRQAPGKEREFVSAIYWSGGTVYYAESVKGRFTISRDNAKNTLYLQMSSLRAEDTAVYYCAVTIRGAATQTWKYDYWGQGTLVTVKPGGGGDKTHTCPPCPAPGGPSVFLFPPKPKDTLMISRTPEVTCVVVDVSHEDPEVKFNWYVDGVEVHNAKTKPREEQYNSTYRVVSVLTVLHQDWLNGKEYKCKVSNKALPAPIEKTISKAKGQPREPQVYTLPPSRDELTKNQVSLTCLVKGFYPSDIAVEWESNGQPENNYKTTPPVLDSDGSFFLYSKLTVDKSRWQQGNVFSCSVMHEALHNHYTQKSLSLSPGK
modifications: INBRX-109
notes: DR5 agonist
In assay [2], B1 displayed a maximally efficacious concentration of 1 nM. The EC50 (usually the concentration giving half of the maximal effect) is 0.00393 nM in assay [3] (INBRX-109 + 2 μM AZD-5991); more than 3.6 nM in assay [3] (INBRX-109 only (Table 5)); “unstable” in assay [3] (INBRX-109 only (Table 7)); 0.0172 nM in assay [3] (INBRX-109 only (Table 9)); 0.029 nM in assay [3] (INBRX-109 only (Table 11)); 1.05 pM in assay [4] (INBRX-109 + 125 nM enitociclib). Besides, the 50% effective concentration (EC50) in assay [4] (setting [8]) is 2.81 pM; in assay [4] (INBRX-109 + 2 μM AZD-5991), 5.33 pM; in assay [4] (INBRX-109 only (Table 5)), “unstable”; in assay [4] (INBRX-109 only (Table 7)), “unstable”; in assay [4] (INBRX-109 only (Table 9)), “Unstable”; in assay [4] (INBRX-109 only (Table 11)) it was 9.1 pM. The EC50 entry in assay [4] (INBRX-109 only (Table 13)) is “Unstable”; in assay [5] (INBRX-109 + 125 nM enitociclib), 2.33 pM; in assay [5] (setting [8]), 1.46 pM; in assay [5] (INBRX-109 + 2 μM AZD-5991), 2.59 pM; in assay [5] (INBRX-109 only (Table 5)) it was 2.2 pM; in assay [5] (INBRX-109 only (Table 7)), 1.96 pM. Besides, the EC50 was 9.25 pM in assay [5] (INBRX-109 only (Table 9)); 9.26 pM in assay [5] (INBRX-109 only (Table 11)); 10.2 pM in assay [5] (INBRX-109 only (Table 13)); 0.646 nM in assay [6] (INBRX-109 + 125 nM enitociclib); 0.00193 nM in assay [6] (setting [8]); “Unstable” in assay [6] (INBRX-109 + 2 μM AZD-5991). Further, the half-maximal effective concentration (EC50) result in assay [6] (INBRX-109 only (Table 9)) was “Unstable”; in assay [6] (INBRX-109 only (Table 11)), 0.011 nM; in assay [7] (INBRX-109 + 2 μM AZD-5991), 5.78 pM; in assay [7] (INBRX-109 only (Table 5)), 7.8 pM; in assay [7] (INBRX-109 only (Table 7)), 98.1 pM; in assay [7] (INBRX-109 only (Table 9)) it was 1.37 pM. The EC50 in assay [7] (INBRX-109 only (Table 11)) was determined as 1.98 pM; in assay [7] (INBRX-109 only (Table 13)), 9.84 pM.
